Measured values: US20150353911

Target: FVII-186, P08709
Sequence (P08709 whole entry, looked up): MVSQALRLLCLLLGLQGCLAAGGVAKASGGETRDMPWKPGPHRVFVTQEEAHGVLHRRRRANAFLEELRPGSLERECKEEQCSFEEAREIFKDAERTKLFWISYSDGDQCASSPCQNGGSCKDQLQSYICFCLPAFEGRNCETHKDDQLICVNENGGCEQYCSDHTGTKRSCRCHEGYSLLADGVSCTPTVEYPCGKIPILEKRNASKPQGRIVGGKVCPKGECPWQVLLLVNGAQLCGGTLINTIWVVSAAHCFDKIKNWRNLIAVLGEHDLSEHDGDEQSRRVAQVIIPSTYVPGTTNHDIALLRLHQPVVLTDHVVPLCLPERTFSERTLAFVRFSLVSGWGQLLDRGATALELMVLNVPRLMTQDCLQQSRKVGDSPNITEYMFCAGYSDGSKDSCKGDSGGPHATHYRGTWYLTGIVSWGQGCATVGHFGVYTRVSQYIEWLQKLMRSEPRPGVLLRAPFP

B1: SUMO protease (Invitrogen Cat. No. 12588-018) (protein)
chain: LVPELNEKDDDQVQKALASRENTQLMNRDNIEITVRDFKTLAPRRWLNDTIIEFFMKYIEKSTPNTVAFNSFFYTNLSERGYQGVRRWMKRKKTQIDKLDKIFTPINLNQSHWALGIIDLKKKTIGYVDSLSNGPNAMSFAILTDLQKYVMEESKHTIGEDFDLIHLDCPQQPNGYDCGIYVCMNTLYGSADAPLDFDYKDAIRMRRFIAHLILTDALK
cleavage of SUMO from FVII-186 (reducing SDS-PAGE): showed almost complete conversion of FVII-186 to the desired FVIIHC
